Positions count from the first letter of the chain named. In names and notes the source's numbering stands. Like-named read-outs stand apart in the source and are kept apart here.
Assays:
[1] = target: T1, recombinant, GPI-linked human FcRn on cell line NS0 HuFcRn (memb), clone 7-3 (human, UniProt P55899 24-297; P61769 21-119); assay: IC50 of wild-type / IC50 of this antibody, same assay
T1 construct: Expressed from pDL208 on the surface of NS0 cells; also called human neonatal Fc receptor; not shown: human c-myc decapeptide flanked by linker peptides, then GPI linkage signal of human decay accelerating factor (vector p)

[2] = target: T1, recombinant, GPI-linked human FcRn on …; assay: competition FACS vs biotinylated HuEP5C7-IgG2M3 on NS0 cells expressing human FcRn, FSB pH 6.0
[3] = target: T1, recombinant, GPI-linked human FcRn on …; assay: IC50 of wild-type / IC50 of this antibody, same assay; remark: listed apart in the source
[4] = target: T2, recombinant, GPI-linked rhesus FcRn on cell line NS0 RhFcRn, clone R-3 (rhesus, UniProt H9Z6D2 24-297; Q6V7J5 21-119, GPI-linked); assay: as above
T2 construct: Expressed from pDL410 on the surface of NS0 cells; not shown: human c-myc decapeptide flanked by linker peptides, then GPI linkage signal of human decay accelerating factor (vector p)

[5] = target: T1, recombinant, GPI-linked human FcRn on …; assay: as above; remark: listed apart in the source
[6] = target: T1, recombinant, GPI-linked human FcRn on …; assay: competition FACS vs biotinylated OST577-IgG1 on NS0 cells expressing human FcRn, FBB pH 6.0
[7] = target: T2, recombinant, GPI-linked rhesus FcRn on …; assay: competition FACS vs biotinylated OST577-IgG1 on NS0 cells expressing rhesus FcRn, FBB pH 6.0
[8] = target: T1, recombinant, GPI-linked human FcRn on …; assay: competition FACS vs biotinylated OST577-IgG1 on NS0 cells expressing human FcRn, FBB pH 6.0; remark: listed apart in the source
[9] = target: T1, recombinant, GPI-linked human FcRn on …; assay: competition FACS vs biotinylated OST577-IgG2M3 on NS0 cells expressing human FcRn, FBB pH 6.0
[10] = target: T2, recombinant, GPI-linked rhesus FcRn on …; assay: IC50 of wild-type / IC50 of this antibody, same assay; remark: listed apart in the source
[11] = target: T2, recombinant, GPI-linked rhesus FcRn on …; assay: competition FACS vs biotinylated OST577-IgG2M3 on NS0 cells expressing rhesus FcRn, FBB pH 6.0
[12] = target: T1, recombinant, GPI-linked human FcRn on …; assay: IC50 of wild-type / IC50 of this antibody, same assay; remark: listed apart in the source

B1: OST577-IgG2M3 L314A (antibody)
heavy: QVQLVESGGGVVQPGRSLRLSCAASGFTFSRYGMHWVRQAPGKGLEWVAVISYDGSNKWYADSVKGRFTISRDNSKNTLFLQMHSLRAADTGVYFCAKDQLYFGSQSPGHYWGQGTLVTVSSASTKGPSVFPLAPCSRSTSESTAALGCLVKDYFPEPVTVSWNSGALTSGVHTFPAVLQSSGLYSLSSVVTVPSSNFGTQTYTCNVDHKPSNTKVDKTVERKCCVECPPCPAPPAAAPSVFLFPPKPKDTLMISRTPEVTCVVVDVSHEDPEVQFNWYVDGVEVHNAKTKPREEQFNSTFRVVSVLTVVHQDWANGKEYKCKVSNKGLPAPIEKTISKTKGQPREPQVYTLPPSREEMTKNQVSLTCLVKGFYPSDIAVEWESNGQPENNYKTTPPMLDSDGSFFLYSKLTVDKSRWQQGNVFSCSVMHEALHNHYTQKSLSLSPSK
light: SYVLTQPPSVSVAPGQTARITCGGDNIGSKSVNWFQQKPGQAPVLVVYDDNERPSGISERFSGSNSGNTATLTISRVEAGDEADYYCQVWDSSSDHVVFGGGTKLTVLGQPKAAPSVTLFPPSSEELQANKATLVCLISDFYPGAVTVAWKADSSPVKAGVETTTPSKQSNNKYAASSYLSLTPEQWKSHRSYSCQVTHEGSTVEKTVAPTECS
With B1 the “Relative Binding” value [1] was 0.16 ratio and the IC50 [2] was 68.7 µg/mL.

B2: OST577-IgG1 wild-type (antibody)
heavy: not shown
light: B1 light
notes: Human anti-HBV antibody, IgG1 heavy, lambda-2 light
With B2 the “Relative Binding” value [3] was 1 ratio, the “Relative Binding” value [4] was 1 ratio and the “Relative Binding” value [5] was 1 ratio. It also gave an IC50 [6] of 13.9 µg/mL, an IC50 [7] of 8.86 µg/mL and an IC50 [8] of 10.3 µg/mL.

B3: OST577-IgG2M3 M428L (antibody)
heavy: B1 heavy with A315L, M429L
light: B1 light
B3 was tested, and the IC50 [9] was 1.79 µg/mL, the “Relative Binding” value [10] was 7.7 ratio and the IC50 [11] was 1.92 µg/mL. For the same binder, the “Relative Binding” value [12] was 6.7 ratio.

B4: OST577-IgG2M3 T250D (antibody)
heavy: B1 heavy with T251D, A315L
light: B1 light
In the case of B4, the “Relative Binding” value [1] is reported as less than 0.05 ratio.

B5: OST577-IgG2M3 L314R (antibody)
heavy: B1 heavy with A315R
light: B1 light
In the case of B5, the “Relative Binding” value [1] is reported as 0.11 ratio and the IC50 [2] is reported as 102 µg/mL.

B6: OST577-IgG2M3 M428G (antibody)
heavy: B1 heavy with A315L, M429G
light: B1 light
With B6 the “Relative Binding” value [1] was 0.072 ratio and the IC50 [2] was 147 µg/mL.

B7: OST577-IgG2M3 L314Q (antibody)
heavy: B1 heavy with A315Q
light: B1 light
For B7, the “Relative Binding” value [1] was 0.33 ratio and the IC50 [2] was 32 µg/mL.

B8: OST577-IgG2M3 T250A (antibody)
heavy: B1 heavy with T251A, A315L
light: B1 light
In the case of B8, the “Relative Binding” value [1] is reported as 0.8 ratio and the IC50 [2] is reported as 13.3 µg/mL.

B9: OST577-IgG2M3 T250Q/M428F (antibody)
heavy: B1 heavy with T251Q, A315L, M429F
light: B1 light
B9 was tested, and the IC50 [9] was 1.5 µg/mL, the “Relative Binding” value [10] was 8.4 ratio and the IC50 [11] was 1.77 µg/mL. The “Relative Binding” value [12] was 8 ratio.

B10: OST577-IgG1 T250Q/M428L (antibody)
heavy: not shown
light: B1 light
In the case of B10, the “Relative Binding” value [4] is reported as 37 ratio, the “Relative Binding” value [5] is reported as 29 ratio and the IC50 [7] is reported as 0.236 µg/mL. For the same binder, the IC50 [8] was 0.351 µg/mL.

B11: OST577-IgG1 M428L (antibody)
heavy: not shown
light: B1 light
For B11, the “Relative Binding” value [4] was 14 ratio, the “Relative Binding” value [5] was 11 ratio and the IC50 [7] was 0.629 µg/mL. The IC50 [8] was 0.896 µg/mL.

B12: OST577-IgG2M3 T250V (antibody)
heavy: B1 heavy with T251V, A315L
light: B1 light
For B12, the “Relative Binding” value [1] was 0.56 ratio and the IC50 [2] was 19 µg/mL.

B13: OST577-IgG1 M428F (antibody)
heavy: not shown
light: B1 light
B13 was tested, and the “Relative Binding” value [3] was 4 ratio and the IC50 [6] was 3.44 µg/mL.

B14: OST577-IgG2M3 T250S (antibody)
heavy: B1 heavy with T251S, A315L
light: B1 light
In the case of B14, the “Relative Binding” value [1] is reported as 0.89 ratio and the IC50 [2] is reported as 12 µg/mL.

B15: OST577-IgG1 T250Q (antibody)
heavy: not shown
light: B1 light
B15 was tested, and the “Relative Binding” value [4] was 3 ratio, the “Relative Binding” value [5] was 3.3 ratio and the IC50 [7] was 2.97 µg/mL. It also gave an IC50 [8] of 3.14 µg/mL.

B16: OST577-IgG1 T250E (antibody)
heavy: not shown
light: B1 light
B16 was tested, and the “Relative Binding” value [3] was 2.6 ratio and the IC50 [6] was 5.26 µg/mL.

B17: OST577-IgG1 T250E/M428F (antibody)
heavy: not shown
light: B1 light
With B17 the “Relative Binding” value [3] was 14 ratio and the IC50 [6] was 0.99 µg/mL.

B18: OST577-IgG2M3 T250Q (antibody)
heavy: B1 heavy with T251Q, A315L
light: B1 light
With B18 the IC50 [9] was 4.2 µg/mL, the “Relative Binding” value [10] was 3.6 ratio and the IC50 [11] was 4.05 µg/mL. The “Relative Binding” value [12] was 2.8 ratio.

B19: OST577-IgG2M3 T250Q/M428L (antibody)
heavy: B1 heavy with T251Q, A315L, M429L
light: B1 light
With B19 the IC50 [9] was 0.43 µg/mL, the “Relative Binding” value [10] was 27 ratio and the IC50 [11] was 0.554 µg/mL. The “Relative Binding” value [12] was 28 ratio.

B20: OST577-IgG2M3 L314W (antibody)
heavy: B1 heavy with A315W
light: B1 light
For B20, the “Relative Binding” value [1] was 0.53 ratio and the IC50 [2] was 20.2 µg/mL.

Source: patent publication US20050276799A1 (PDL BIOPHARMA, published 2005)
